Measurements published in US20230212256A1 (University of Texas, published 2023).

B1: VGLL1-derived 10-mer peptide LSELETPGKY (peptide)
peptide: LSELETPGKY
notes: This is the native peptide eluted from immunoprecipitated HLA class I. The 13C/15N-lysine labeled synthetic peptide served only as the MS standard; also called VGLL1 231-240 peptide; VGLL1 peptide
B2: VGLL1 TCR #2 (TCR, V domains shown)
Valpha: ENVEQHPSTLSVQEGDSAVIKCTYSDSASNYFPWYKQELGKRPQLIIDIRSNVGEKKDQRIAVTLNKTAKHFSLHITETQPEDSAVYFCAARGLTGGGNKLTFGTGTQLKVEL
Vbeta: GVTQSPTHLIKTRGQQVTLRCSPKSGHDTVSWYQQALGQGPQFIFQYYEEEERQRGNFPDRFSGHQFPNYSSELNVNALLLGDSALYLCASSVGTGITEAFFGQGTRLTVV
B3: VGLL1 TCR #3 (TCR, V domains shown)
Valpha: ENVEQHPSTLSVQEGDSAVIKCTYSDSASNYFPWYKQELGKRPQLIIDIRSNVGEKKDQRIAVTLNKTAKHFSLHITETQPEDSAVYFCAAIPNSGGYQKVTFGIGTKLQVIP
Vbeta: GVTQSPTHLIKTRGQQVTLRCSPKSGHDTVSWYQQALGQGPQFIFQYYEEEERQRGNFPDRFSGHQFPNYSSELNVNALLLGDSALYLCASSVGTGITEAFFGQGTRLTVV
B4: VGLL1 TCR #4 (TCR, V domains shown)
Valpha: QQQVKQSPQSLIVQKGGISIINCAYENTAFDYFPWYQQFPGKGPALLIAIRPDVSEKKEGRFTISFNKSAKQFSLHIMDSQPGDSATYFCAAVRYNFNKFYFGSGTKLNVKP
Vbeta: GVTQSPTHLIKTRGQQVTLRCSPKSGHDTVSWYQQALGQGPQFIFQYYEEEERQRGNFPDRFSGHQFPNYSSELNVNALLLGDSALYLCASSVGTGITEAFFGQGTRLTVV
B5: VGLL1 TCR #1 (TCR, V domains shown)
Valpha: AQKVTQAQTEISVVEKEDVTLDCVYETRDTTYYLFWYKQPPSGELVFLIRRNSFDEQNEISGRYSWNFQKSTSSFNFTITASQVVDSAVYFCALSPGANSKLTFGKGITLSVRP
Vbeta: DAGVTQSPTHLIKTRGQQVTLRCSPKSGHDTVSWYQQALGQGPQFIFQYYEEEERQRGNFPDRFSGHQFPNYSSELNVNALLLGDSALYLCASSVGTGITEAFFGQGTRLTVV

Tests used:
HLA-A*0101 = biological target: T1, HLA-A*0101 (human); assay: HLA class I immunoprecipitation, acid elution, tandem MS
T1 construct: whole, on cells; The peptide was eluted from total HLA class I immunoprecipitated with W6/32; also called HLA-A1; HLAA1
Method: Protein A/G Ultralink resin beads were used to immunoprecipate HLA class I molecules and HLA-bound peptides were then eluted with 0.1M acetic acid. HLA-A, B, C isolation was confirmed by Western blot analysis, then HLA-positive elutes were analyzed by tandem mass spectrometry (MS/MS). HLA class I protein recovery was semi-quantitatively assessed by rating Western blot band intensity on a scale from 0 (not detectable) to 4 (highest intensity). Tumor-associated HLA-bound peptides were injected onto HPLC system (Dionex 3000 RSLC), and separated by reverse-phase chromatography in 0.1% formic acid water-acetonitrile on 1.8 μm C18 (Agilent Technologies) in the MS/MS discovery phase. Peptides were analyzed on an Orbitrap Elite mass spectrometer (Thermo-Fisher) using data-dependent acquisition.

[1] = biological target: T2, VGLL1 (Vestigial-like 1) peptide on HLA-A*01:01 (human); assay: multimer staining
T2 peptide: LSELETPGKY

Binder | binding result (HLA-A*0101) | binding result [1]
B1 | binds | –
B2 | – | recognises
B3 | – | recognises
B4 | – | recognises
B5 | – | recognises
